Measured values: patent US20190144529A1 (UCB, published 2019)
Several values for one entry are separate records, joined by “and”; a condition that tells them apart may be missing. Identical values can stand only once. Like-named read-outs stand apart in the source and are kept apart here.

Tests used:
human serum albumin [1] = target: T1, human serum albumin (human, UniProt P02768 25-609); experiment: SPR at pH 5.5
T1 construct: mature; Bought purified serum albumin; also called HSA; Human albumin

human serum albumin [2] = target: T1, human serum albumin; experiment: SPR, Fab captured, albumin titrated
Procedure: (§1) For analysis at pH 7.0, 6.0, 5.5 and 5.0, a running buffer of 40 mM citric acid, 80 mM sodium phosphate 50 mM NaCl, 3 mM EDTA, 0.05% v/v P20 was used. The required pH was achieved by altering the ratio of citric acid to sodium phosphate. All experiments were performed at 25° C. The antibody samples were captured to the sensor chip surface using either a human F(ab′)₂-specific or human Fc-specific goat Fab (Jackson ImmunoResearch). Covalent immobilisation of the capture antibody was achieved by standard amine coupling chemistry to a level of 6000-7000 response units (RU).
(§2) Each assay cycle consisted of firstly capturing the antibody sample using a 1 min injection, before an association phase consisting of a 3 min injection of albumin, after which dissociation was monitored. After each cycle, the capture surface was regenerated with two 1 min injections of 40 mM HCl followed by 30 s of 5 mM NaOH. The flow rates used were 10 μl/min for capture, 30 μl/min for both the association and dissociation phases, and 10 μl/min for regeneration. A blank flow-cell was used for reference subtraction and buffer-blank injections were included to subtract instrument noise and drift.

mouse serum albumin [3] = target: T2, mouse serum albumin (mouse, UniProt P07724 25-608); experiment: SPR, Fab captured, albumin titrated
T2 construct: mature; Bought purified serum albumin; also called MSA; Mouse albumin
Procedure: as §1, §2

human serum albumin [4] = target: T1, human serum albumin; experiment: SPR, Fab captured; albumin taken as HSA
Procedure: as §2

human serum albumin [5] = target: T1, human serum albumin; experiment: SPR, Fab captured; albumin taken as HSA; remark: listed apart in the source
Procedure: as §2

human serum albumin [6] = target: T1, human serum albumin; experiment: SPR, Fab captured; albumin taken as HSA; remark: listed apart in the source
Procedure: as §2

human serum albumin [7] = target: T1, human serum albumin; experiment: SPR at pH 6.0
Procedure: as §1, §2

human serum albumin [8] = target: T1, human serum albumin; experiment: SPR at pH 5.0
Procedure: as §1, §2

bovine serum albumin = target: T3, bovine serum albumin (bovine, UniProt P02769 25-607); experiment: SPR, Fab captured, albumin titrated
T3 construct: mature; Bought purified serum albumin; also called BSA; Bovine albumin
Procedure: as §1, §2

rabbit serum albumin [9] = target: T4, rabbit serum albumin (rabbit, UniProt P49065 25-608); experiment: SPR, Fab captured, albumin titrated
T4 construct: mature; Bought purified serum albumin; also called RbSA; Rabbit albumin
Procedure: as §1, §2

human serum albumin [10] = target: T1, human serum albumin; experiment: SPR, Fab captured, albumin titrated; remark: listed apart in the source
Procedure: as §1, §2

mouse serum albumin [11] = target: T2, mouse serum albumin; experiment: SPR, Fab captured, albumin titrated; remark: listed apart in the source
Procedure: as §1, §2

cynomolgus serum albumin = target: T5, cynomolgus serum albumin (cynomolgus, UniProt A2V9Z4 25-608); experiment: SPR, Fab captured, albumin titrated
T5 construct: mature; Bought purified serum albumin; also called CSA; Cynomolgus albumin
Procedure: as §1, §2

rat serum albumin [12] = target: T6, rat serum albumin (rat, UniProt P02770 25-608); experiment: SPR, Fab captured, albumin titrated
T6 construct: mature; Bought purified serum albumin; also called RSA; Rat albumin
Procedure: as §1, §2

human serum albumin [13] = target: T1, human serum albumin; experiment: SPR at pH 7.0
Procedure: as §1, §2

human serum albumin [14] = target: T1, human serum albumin; experiment: SPR, Fab captured, HSA
Procedure: as §1, §2

rabbit serum albumin [15] = target: T4, rabbit serum albumin; experiment: SPR
Procedure: as §1, §2

mouse serum albumin [16] = target: T2, mouse serum albumin; experiment: SPR
Procedure: as §1, §2

rat serum albumin [17] = target: T6, rat serum albumin; experiment: SPR
Procedure: as §1, §2

B1: CA645 gL4gH5 Fab (Fab, V domains shown)
VH: EVQLLESGGGLVQPGGSLRLSCAVSGIDLSNYAINWVRQAPGKGLEWIGIIWASGTTFYATWAKGRFTISRDNSKNTVYLQMNSLRAEDTAVYYCARTVPGYSTAPYFDLWGQGTLVTVSS
VL: DIQMTQSPSSVSASVGDRVTITCQSSPSVWSNFLSWYQQKPGKAPKLLIYEASKLTSGVPSRFSGSGSGTDFTLTISSLQPEDFATYYCGGGYSSISDTTFGGGTKVEIK
notes: Humanized Fab: human gamma1 CH1, human kappa constant region (Km3); parent of all mutants; also called CA645 Fab; Fab_645
Kd (human serum albumin [1]): 10.7 nM | Kd (human serum albumin [2]): 1.8 nM | koff (human serum albumin [2]): 0.0004 s⁻¹ | kon (human serum albumin [2]): 220000 M⁻¹ s⁻¹ | Kd (mouse serum albumin [3]): 2.2 nM | koff (mouse serum albumin [3]): 0.00068 s⁻¹ | kon (mouse serum albumin [3]): 310000 M⁻¹ s⁻¹ | Kd (human serum albumin [4]): 2.72 nM and 2.7 nM | koff (human serum albumin [4]): 0.000161 s⁻¹ and 0.000158 s⁻¹ | kon (human serum albumin [4]): 59100 M⁻¹ s⁻¹ and 58600 M⁻¹ s⁻¹ | Kd (human serum albumin [5]): 2.14 nM and 2.51 nM | koff (human serum albumin [5]): 0.000123 s⁻¹ and 0.00014 s⁻¹ | kon (human serum albumin [5]): 57500 M⁻¹ s⁻¹ and 56000 M⁻¹ s⁻¹ | Kd (human serum albumin [6]): 2.97 nM and 3.8 nM | koff (human serum albumin [6]): 0.000167 s⁻¹ and 0.000211 s⁻¹ | kon (human serum albumin [6]): 56200 M⁻¹ s⁻¹ and 55700 M⁻¹ s⁻¹ | Kd (human serum albumin [7]): 12.5 nM | Kd (human serum albumin [8]): 7.1 nM | binding result (bovine serum albumin): no binding | Kd (rabbit serum albumin [9]): 162 nM | koff (rabbit serum albumin [9]): 0.00029 s⁻¹ | kon (rabbit serum albumin [9]): 2000 M⁻¹ s⁻¹ | Kd (human serum albumin [10]): 4.6 nM | koff (human serum albumin [10]): 0.00041 s⁻¹ | kon (human serum albumin [10]): 90000 M⁻¹ s⁻¹ | Kd (mouse serum albumin [11]): 7.1 nM | koff (mouse serum albumin [11]): 0.00034 s⁻¹ | kon (mouse serum albumin [11]): 48000 M⁻¹ s⁻¹ | Kd (cynomolgus serum albumin): 3.3 nM | koff (cynomolgus serum albumin): 0.00035 s⁻¹ | kon (cynomolgus serum albumin): 100000 M⁻¹ s⁻¹ | Kd (rat serum albumin [12]): 54 nM | koff (rat serum albumin [12]): 0.0013 s⁻¹ | kon (rat serum albumin [12]): 24000 M⁻¹ s⁻¹ | Kd (human serum albumin [13]): 13.3 nM | Kd (human serum albumin [14]): 1.23 nM | koff (human serum albumin [14]): 0.000172 s⁻¹ | kon (human serum albumin [14]): 139000 M⁻¹ s⁻¹ | fold reduction in association rate for RbSA against HSA (rabbit serum albumin [15]): 18 fold | fold weaker affinity for MSA than for HSA (mouse serum albumin [16]): 1.2 fold | fold lower affinity for RSA than for HSA (rat serum albumin [17]): ~10 fold
